T1: Par(1-170) (Staphylococcus aureus plasmid pSK1, UniProt Q9L8I7 1-170)
T1 sequence: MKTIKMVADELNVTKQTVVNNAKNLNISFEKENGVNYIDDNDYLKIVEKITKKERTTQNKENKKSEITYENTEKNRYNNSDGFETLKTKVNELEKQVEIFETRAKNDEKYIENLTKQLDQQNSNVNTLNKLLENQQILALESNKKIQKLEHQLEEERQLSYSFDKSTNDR


Key:
Par(1-170) = molecular target: T1, Par(1-170); assay: fluorescence polarization
SEC = molecular target: the molecule itself; assay: SEC

Row | Binder | Kd (Par(1-170)) [nM] | stoichiometry N (SEC)
1 | centromere repeat 4 (dsDNA) DNA 1: ATGTTAGGCGGTAAACTA DNA 2: TAGTTTACCGCCTAACAT | 140 ± 10 | 
2 | centromere repeat 1 (dsDNA) DNA 1: ATGTTAGGTGCCTAACTA DNA 2: TAGTTAGGCACCTAACAT | 67.5 ± 3.2 | 
3 | palindromic 18-mer (crystallization site), FP (dsDNA) DNA 1: ATGTTAGGTACCTAACTA DNA 2: TAGTTAGGTACCTAACAT | 43.4 ± 1.5 | 
4 | pSK1 Par(1–170) (domain or fragment) MKTIKMVADELNVTKQTVVNNAKNLNISFEKENGVNYIDDNDYLKIVEKITKKERTTQNKENKKSEITYENTEKNRYNNSDGFETLKTKVNELEKQVEIFETRAKNDEKYIENLTKQLDQQNSNVNTLNKLLENQQILALESNKKIQKLEHQLEEERQLSYSFDKSTNDR |  | 4
5 | centromere repeat 3 (dsDNA) DNA 1: ATGTTAGGTGGTAAACTA DNA 2: TAGTTTACCACCTAACAT | 62.7 ± 1.3 | 
6 | centromere repeat 6 (dsDNA) DNA 1: ATGTTAGGTACTTAGCTA DNA 2: TAGCTAAGTACCTAACAT | 90.2 ± 5.6 | 
7 | pSK1 Par(78–170) (domain or fragment) NNSDGFETLKTKVNELEKQVEIFETRAKNDEKYIENLTKQLDQQNSNVNTLNKLLENQQILALESNKKIQKLEHQLEEERQLSYSFDKSTNDR |  | 4
8 | half site mutant 18-mer (dsDNA) DNA 1: ATGTTAGGTACCCGACTA DNA 2: TAGTCGGGTACCTAACAT | 195 ± 10.8 | 
9 | centromere repeat 2/5/7 (dsDNA) DNA 1: ATGTTAGGTAGTAAACTA DNA 2: TAGTTTACTACCTAACAT | 66.5 ± 4.9 | 

From article PMC9595883 (Journal of molecular biology, 2022)
